Measurements: patent publication US20230103563A1 (Sanofi, published 2023)

T1: human IL4 (IL004, Millipore) (human, UniProt P05112 25-153)
T1 construct: Bought protein, used as analyte in SPR; also called interleukin IL4
T1 sequence (looked up): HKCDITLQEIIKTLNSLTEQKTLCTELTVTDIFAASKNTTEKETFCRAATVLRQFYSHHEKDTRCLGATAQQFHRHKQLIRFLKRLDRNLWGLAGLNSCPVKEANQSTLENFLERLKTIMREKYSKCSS

B1: protein variant (8), Diabody Split CH2 tetravalent bispecific antibody (bispecific antibody, human IgG4 S228P)
chain 1: DIVLTQSPASLAVSLGQRATISCRASESVDSYGQSYMHWYQQKAGQPPKLLIYLASNLESGVPARFSGSGSRTDFTLTIDPVQAEDAATYYCQQNAEDSRTFGGGTKLEIKGGGSGGGGQVQLQQSGPELVKPGASVKISCKASGYSFTSYWIHWIKQRPGQGLEWIGMIDPSDGETRLNQRFQGRATLTVDESTSTAYMQLRSPTSEDSAVYYCTRLKEYGNYDSFYFDVWGAGTLVTVSSGGPSVFLFPPKPKDTLMISRTPEVTCVVVDVSHEDPEVKFNWYVDGVEVHN
chain 2: not shown
notes: variant (1) fused to an IgG Fc-domain
B2: protein variant (10), CODV-Split CH2 tetravalent bispecific antibody (bispecific antibody, human IgG4 S228P, kappa)
chain 1: DIVLTQSPASLAVSLGQRATISCRASESVDSYGQSYMHWYQQKAGQPPKLLIYLASNLESGVPARFSGSGSRTDFTLTIDPVQAEDAATYYCQQNAEDSRTFGGGTKLEIKGQPKAAPSDIQMTQSPASLSVSVGDTITLTCHASQNIDVWLSWFQQKPGNIPKLLIYKASNLHTGVPSRFSGSGSGTGFTLTISSLQPEDIATYYCQQAHSYPFTFGGGTKLEIKTKGPSVFRTVAAPSVFIFPPSDEQLKSGTASVVCLLNNFYPREAKVQWKVDNALQSGNSQESVTEQDSKDSTYSLSSTLTLSKADYEKHKVYACEVTHQGLSSPVTKSFNRGECGGPSVFLFPPKPKDTLMISRTPEVTCVVVDVSHEDPEVKFNWYVDGVEVHN
chain 2: not shown
notes: variant (3) fused to an IgG Fc-domain
B3: protein variant (9), DVD-Split CH2 tetravalent bispecific antibody (bispecific antibody, human IgG4 S228P, kappa)
chain 1: DIVLTQSPASLAVSLGQRATISCRASESVDSYGQSYMHWYQQKAGQPPKLLIYLASNLESGVPARFSGSGSRTDFTLTIDPVQAEDAATYYCQQNAEDSRTFGGGTKLEIKGGGGSGGGGSDIQMTQSPASLSVSVGDTITLTCHASQNIDVWLSWFQQKPGNIPKLLIYKASNLHTGVPSRFSGSGSGTGFTLTISSLQPEDIATYYCQQAHSYPFTFGGGTKLEIKRTVAAPSVFIFPPSDEQLKSGTASVVCLLNNFYPREAKVQWKVDNALQSGNSQESVTEQDSKDSTYSLSSTLTLSKADYEKHKVYACEVTHQGLSSPVTKSFNRGECGGPSVFLFPPKPKDTLMISRTPEVTCVVVDVSHEDPEVKFNWYVDGVEVHN
chain 2: not shown
notes: variant (2) fused to an IgG Fc-domain
B4: protein variant (1), Diabody-added Split CH2 (diabody split CH2, anti-IL4/anti-IL13) (bispecific antibody)
chain 1: B1 chain 1
chain 2: DIQMTQSPASLSVSVGDTITLTCHASQNIDVWLSWFQQKPGNIPKLLIYKASNLHTGVPSRFSGSGSGTGFTLTISSLQPEDIATYYCQQAHSYPFTFGGGTKLEIKGGGSGGGGEVQLKESGPGLVAPGGSLSITCTVSGFSLTDSSINWVRQPPGKGLEWLGMIWGDGRIDYADALKSRLSISKDSSKSQVFLEMTSLRTDDTATYYCARDGYFPYAMDFWGQGTSVTVSSGGGGSGGGGSAKTKPREEQYNSTYRVVSVLTVLHQDWLNGKEYKCKVSNKALPAPIEKTISKAKGQPREHHHHHH
notes: Two chains joined by the disulfide bond of the reassembled IgG1 split CH2 domain
B5: protein variant (7), Diabody Split CH2 (included) ("Splite") (bispecific antibody)
chain 1: DIVLTQSPASLAVSLGQRATISCRASESVDSYGQSYMHWYQQKAGQPPKLLIYLASNLESGVPARFSGSGSRTDFTLTIDPVQAEDAATYYCQQNAEDSRTFGGGTKLEIKGGPSVFLFPPKPKDTLMISRTPEVTCVVVDVSHEDPEVKFNWYVDGVEVHNDIQMTQSPASLSVSVGDTITLTCHASQNIDVWLSWFQQKPGNIPKLLIYKASNLHTGVPSRFSGSGSGTGFTLTISSLQPEDIATYYCQQAHSYPFTFGGGTKLEIK
chain 2: EVQLKESGPGLVAPGGSLSITCTVSGFSLTDSSINWVRQPPGKGLEWLGMIWGDGRIDYADALKSRLSISKDSSKSQVFLEMTSLRTDDTATYYCARDGYFPYAMDFWGQGTSVTVSSGGGGSGGGGSGGGGSAKTKPREEQYNSTYRVVSVLTVLHQDWLNGKEYKCKVSNKALPAPIEKTISKAKGQPREQVQLQQSGPELVKPGASVKISCKASGYSFTSYWIHWIKQRPGQGLEWIGMIDPSDGETRLNQRFQGRATLTVDESTSTAYMQLRSPTSEDSAVYYCTRLKEYGNYDSFYFDVWGAGTLVTVSSHHHHHH
notes: Splite diabody with other linkers than variant (4); also called splite diabody
B6: protein variant (5), Diabody Split CH2 (included) ("Splite") (bispecific antibody)
chain 1: B5 chain 1
chain 2: EVQLKESGPGLVAPGGSLSITCTVSGFSLTDSSINWVRQPPGKGLEWLGMIWGDGRIDYADALKSRLSISKDSSKSQVFLEMTSLRTDDTATYYCARDGYFPYAMDFWGQGTSVTVSSGGGAKTKPREEQYNSTYRVVSVLTVLHQDWLNGKEYKCKVSNKALPAPIEKTISKAKGQPREQVQLQQSGPELVKPGASVKISCKASGYSFTSYWIHWIKQRPGQGLEWIGMIDPSDGETRLNQRFQGRATLTVDESTSTAYMQLRSPTSEDSAVYYCTRLKEYGNYDSFYFDVWGAGTLVTVSSHHHHHH
notes: as for B5
B7: protein variant (4), Diabody Split CH2 (included) ("Splite") (bispecific antibody, IgG1)
chain 1: DIVLTQSPASLAVSLGQRATISCRASESVDSYGQSYMHWYQQKAGQPPKLLIYLASNLESGVPARFSGSGSRTDFTLTIDPVQAEDAATYYCQQNAEDSRTFGGGTKLEIKGGPSVFLFPPKPKDTLMISRTPEVTCVVVDVSHEDPEVKFNWYVDGVEVHNGGGGSGGGGSGGGGSDIQMTQSPASLSVSVGDTITLTCHASQNIDVWLSWFQQKPGNIPKLLIYKASNLHTGVPSRFSGSGSGTGFTLTISSLQPEDIATYYCQQAHSYPFTFGGGTKLEIK
chain 2: B5 chain 2
notes: Split IgG1 CH2 domain inserted between the variable domains; also called splite diabody
B8: protein variant (6), Diabody Split CH2 (included) ("Splite") (bispecific antibody)
chain 1: B7 chain 1
chain 2: B6 chain 2
notes: as for B5

molecular target: T1, human IL4 (IL004, Millipore); experiment: SPR (Biacore), variant captured with human antibody capture kit, IL4 as analyte
Method: (§1) Binding of antigens to the antibody constructs was measured using surface plasmon resonance (SPR) on a BIAcore 3000 instrument (GE Healthcare) with HBS-EP buffer (GE Healthcare). As antigens human IL4 (IL004, Millipore) and human IL13 (IL012, Millipore) were used. The capture antibody (human antibody capture kit, His capture kit, Fab capture kit, GE Life Sciences) was immobilized via primary amine groups (11000 RU) on a research grade CMS chip (GE Life Sciences) using standard procedures. […] The antigens human IL4 and human IL13 were used as analytes and injected for 240 sec with a dissociation time of 300 sec at a flow rate of 30 μL/min. IL4 and IL13 were used in a dilution series of 0.1 nM to 3 nM and 0.8 nM to 25 nM, respectively. Chip surfaces were regenerated with 2 min injects of the regeneration buffer provided with the capture kit. Sensorgrams were double referenced with a blank chip surface and HBS-EP buffer blanks. Recombinant human neonatal Fc-receptor (FcRn) protein was immobilized via primary amine groups (200 RU) in the sample flow cell compartment of a research grade CMS chip (GE Life Sciences) using standard procedures. The reference flow cell compartment was activated and deactivated without FcRn immobilization to generate a blank chip surface. For the analysis an assay buffer with pH 6.0 was used (150 mM NaCl, 20 mM Na-phosphate, 0.05% surfactant P20, pH6.0). The antibody was used as analyte at 800 nM dilution in assay buffer and injected over reference and sample flow cells for 240 sec with a dissociation time of 300 sec at a flow rate of 30 μL/min. Chip surfaces were regenerated with 2 min injects of HBS-EP buffer at 30 μl/min. Sensorgrams were double referenced with a the blank chip surface and HBS-EP buffer blanks. All data analysis was done using the BIAevaluation software v4.1.

Kd [pM] | koff [s⁻¹] | kon [M⁻¹ s⁻¹] | Binder
1.43 | 0.000135 | 9.49e+07 | B1
0.222 | 0.000204 | 9.19e+08 | B2
6.09 | 0.000108 | 1.77e+07 | B3

molecular target: T1, human IL4 (IL004, Millipore); experiment: SPR (Biacore), variant captured with His-capture kit, IL4 as analyte
Method: as §1

Ka [M⁻¹] | Kd [nM] | koff [s⁻¹] | kon [M⁻¹ s⁻¹] | Binder
6.24e+10 | 0.016 | 0.00117 | 7.32e+07 | B4
1.46e+10 | 0.0685 | 0.000232 | 3.38e+06 | B5
– | 0.0403 | 0.000165 | 4.1e+06 | B6
– | 0.0648 | 0.000224 | 3.46e+06 | B7
1.14e+10 | 0.0878 | 0.000261 | 2.97e+06 | B8

molecular target: T1, human IL4 (IL004, Millipore); experiment: SPR (Biacore 3000), construct captured, IL4 as analyte; summary table
Method: as §1

Kd [nM] | Binder
0.00143 | B1
0.016 | B4
0.000222 | B2
0.0685 | B5
0.0403 | B6
0.0648 | B7
0.00609 | B3
0.0878 | B8
